{
  "source": "paper PMC8597827",
  "about": "“The effect of S427F mutation on RXRα activity depends on its dimeric partner†”",
  "binders": {"B1": {"name": "DR1 (dsDNA)", "DNA 1": "TCGAGGGTAGGGGTCAGAGGTCACTCGTCGA", "DNA 2": "TCGACGAGTGACCTCTGACCCCTACCCTCGA"}},
  "biological_target": "RXRα S427F (human, UniProt P19793 1-462, S427F)",
  "sequence (P19793 whole entry S427F)": "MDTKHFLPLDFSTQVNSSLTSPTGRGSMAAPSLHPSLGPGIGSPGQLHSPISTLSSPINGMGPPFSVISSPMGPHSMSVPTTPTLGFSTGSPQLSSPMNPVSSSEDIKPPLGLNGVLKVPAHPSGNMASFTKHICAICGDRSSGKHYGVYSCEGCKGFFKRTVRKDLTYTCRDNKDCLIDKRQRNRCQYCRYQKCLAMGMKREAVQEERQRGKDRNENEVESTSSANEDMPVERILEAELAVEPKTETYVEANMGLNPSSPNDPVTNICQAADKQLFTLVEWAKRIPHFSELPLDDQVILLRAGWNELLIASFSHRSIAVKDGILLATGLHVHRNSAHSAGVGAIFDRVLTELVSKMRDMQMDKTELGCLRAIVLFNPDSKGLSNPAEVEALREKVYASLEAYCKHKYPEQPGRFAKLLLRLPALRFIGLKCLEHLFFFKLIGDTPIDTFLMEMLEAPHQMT",
  "test": "EMSA; no ligand; binds as well as WT; two shifts; competed by 5x and 25x unlabeled DR1; 10 mM Tris HCl pH 8.0, 150 mM KCl, 0.5 mM EDTA, 0.1% Triton X-100, 12.5% glycerol, 0.2 mM DTT, 1 ug poly(dI-dC), 100 pmol probe in 20 uL; 10 min RT then 5 min 37 C; 5% PAGE in 0.5x TBE at 4 C",
  "settings": "protein: recombinant; chain copies: 2; blunt",
  "data": [
    {"binder": "B1", "values": [
      {"measurement": "binding result", "result": "binds"}
    ]}
  ]
}
